Consider three molecules from patent publication US20240368230A1, “CELL-PENETRATING PEPTIDES COMPRISING MULTIPLE 5-MER ALPHA-HELIX FRAGMENTS AND USES THEREOF” (ArtProBio Co., Ltd., priority 2023, published 2024).

The test system of assay [1] is HeLa cells. The assay is described as follows: Confocal microscopy of intracellular delivery of ZsGreen cargo. The assay is classed as cell-based. Particulars: 50 μM, 30 minutes. The procedure:
A DMEM medium containing 10% FBS was prepared on an 8-well Lab-Tek II chamber slide (Thermo Fisher Scientific, USA). Hela cells were dispensed in each well at a density of 10^4 cells/well and cultured for 24 hours. The cells were washed twice with PBS and then cultured for 30 minutes after replacing the medium with one containing 50 μM of the ZsGreen or the CPP22-ZsGreen fusion protein. The cells were washed with PBS, treated with DAPI, and then washed with PBS after reaction for 5 minutes (for observation of cell nuclei). Then, the stained cells were observed by confocal microscopy.

The subject of assay [2] is HeLa cells. Briefly: Flow cytometry of intracellular delivery of ZsGreen cargo. The assay is classed as cell-based. Particulars: Hela cells, 10, 20 or 50 μM, 4 hours. As for the experimental part:
Hela cells were inoculated onto a 24-well plate (10^5 cells/well) and cultured in a DMEM medium containing 10% FBS for 24 hours. After washing with PBS, the cells were treated with ZsGreen or the CPP22-ZsGreen fusion protein at 0, 10, 20 or 50 μM for 4 hours. Then, after washing the cells twice with PBS and incubating with trypsin (1 mg/mL) for 15 minutes, the peptides bound to the cell surface were removed. The cells were centrifuged at 1,200 rpm for 5 minutes, washed twice with PBS, and then suspended in a PBS buffer containing 10% non-enzymatic cell dissociation solution. The fluorescence intensity of the internalized peptide was measured using a BD LSR II flow cytometer (BD Biosciences, USA).

Assay [3] deals with wild-type IIB (RRE IIB WT). Briefly: EMSA with 32P-labeled wild-type IIB and mutant IIB. It counts as binding, HIV-1. The procedure:
A peptide (sample) and ^32P-labeled RNA were mixed with a binding buffer (10 mM HEPES (pH 7.5), 100 mM KCl, 1 mM MgCl2, 0.5 mM EDTA, 10% glycerol and […] yeast tRNA). After serially diluting the peptide with the binding buffer, RNA (10 pM) of the same volume was added. The resulting mixture was incubated at room temperature for 30 minutes and electrophoresis was conducted at 4° C. on 10% polyacrylamide gel. The […] was visualized with FLA-7000 Phosphor Imager (GE Healthcare Life Sciences, USA) and analyzed using the Multi Gauge software.
In order to analyze the binding affinity of cRev for IIB RNA, the /Rev of Preparation Example 1 or the cRev of Preparation Example 2 was mixed with ^32P-labeled wild-type IIB and ^32P-labeled mutant IIB, respectively, and analyzed by EMSA (electrophoretic mobility shift assay). The mutation of IIB is the mutation in the G46-C74 base pairs of wild-type IIB.

The target of another assay is IIB RNA. The assay is described as follows: Fluorescence anisotropy analysis of cRev with Cy3-labeled IIB RNA. To be noted: Cy3-IIB RNA 250 nM, room temperature, pH 6.0; read-out: Kd (dissociation constant) for the interaction with IIB RNA. It counts as binding, HIV-1. The procedure: IIB RRE labeled with […] Cy3 was dissolved in a binding buffer (25 mM sodium phosphate, 50 mM NaCl, pH 6.0). The peptide (sample) of various concentrations was sequentially added to 250 nM RNA. The final concentration of the peptide was 600 nM. After the mixing, the sample was incubated for 1 minute. There was 1-minute incubation time between all the steps. All the experiments were performed at room temperature. The dissociation constant (Kd) was calculated using the Origin software.
In order to analyze the function of cRev, the cRev of Preparation Example 2 was mixed with Cy3-labeled IIB RNA and then fluorescence anisotropy analysis was performed.

For orientation: Kd means a measure of binding affinity in units of concentration.

B1: ZsGreen: green fluorescent protein, expressed from bacterial cells, used as a comparative example (protein)
chain: MAQSKHGLTKEMTMKYRMEGCVDGHKFVITGEGIGYPFKGKQAINLCVVEGGPLPFAEDILSAAFMYGNRVFTEYPQDIADYFKNSCPAGYTWDRSFLFEDGAVCICNADITVSVEENCMYHESKFYGVNFPADGPVMKKMTDNWEPSCEKIIPVPKQGILKGDVSMYLLLKDGGRLRCQFDTVYKAKSVPRKMPDWHFIQHKLTREDRSDAKNQKWHLTEHAIASGSALP
As to B1, the “intracellular delivery (confocal microscopy)” value in the assay with HeLa cells [1] was “not delivered into the cells”. Moreover, in the assay on HeLa cells [2], the “intracellular delivery (flow cytometry)” value was “no intracellular delivery was observed”.

B2: CPP22-ZsGreen: fusion protein wherein CPP22 is fused with the ZsGreen protein (protein)
chain: GSHMASAAAQARRNAAAQARRNAAAQARRNAAAQARRNAAAQARRNAAAGSGSGSGSGPVATMAQSKHGLTKEMTMKYRMEGCVDGHKFVITGEGIGYPFKGKQAINLCVVEGGPLPFAEDILSAAFMYGNRVFTEYPQDIADYFKNSCPAGYTWDRSFLFEDGAVCICNADITVSVEENCMYHESKFYGVNFPADGPVMKKMTDNWEPSCEKIIPVPKQGILKGDVSMYLLLKDGGRLRCQFDTVYKAKSVPRKMPDWHFIQHKLTREDRSDAKNQKWHLTEHAIASGSALP
Turning to B2, the “intracellular delivery (confocal microscopy)” value in the assay on HeLa cells [1] was “successfully delivered into and accumulated in the cells at a significant level”. The “intracellular delivery (flow cytometry)” value with HeLa cells [2] is “delivered to and accumulated in the cells at a significantly high level”.

B3: CRGGDEDALKAARAIKFLYQSNPPPNPEGTRQARRNRRRRWRERQRQIHSASERIASTLGGMRM (protein)
chain: CRGGDEDALKAARAIKFLYQSNPPPNPEGTRQARRNRRRRWRERQRQIHSASERIASTLGGMRM
modifications: cyclized via intein; The peptide is circular.
notes: cyclic, oligomerization-defective Rev N-terminal domain protein made by intein-mediated cyclization
In the case of B3, in assay [3] (wild-type IIB (RRE IIB WT)), the “binding affinity for wild-type IIB compared with /Rev” value is on record as “significantly higher binding affinity”. Also, in assay [3] (wild-type IIB versus mutant IIB), the “recognition of IIB RNA (EMSA)” value was “specifically recognizes IIB RNA”. Further, the equilibrium dissociation constant (Kd) on IIB RNA is 34 nM.
